Test results published in article PMC12416549 (2024).

T1: TNFR1 (Homo sapiens, UniProt P19438)
T1 chain: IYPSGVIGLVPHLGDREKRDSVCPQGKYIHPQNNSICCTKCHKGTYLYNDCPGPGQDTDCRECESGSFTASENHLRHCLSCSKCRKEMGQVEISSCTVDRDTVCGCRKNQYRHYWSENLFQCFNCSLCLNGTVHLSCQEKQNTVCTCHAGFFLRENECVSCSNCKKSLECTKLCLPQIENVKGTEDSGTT


Molecular target: T1, TNFR1
Experiment: yeast display SC50

Row | apparent Kd (screen) | Binder
1 | 11.4 nM | I45R (designed binder) MTLQELLREEALRRAEAEAFRYALELLAEKFPEQKEYLLDLAEERESQIRSLSGVDVEDVRKFLDKEWAWVKELLAEHPAELAEVEAARAARLAELRAEVEAKVAA
2 | 2.48 nM | L74E (designed binder) MTLQELLREEALRRAEAEAFRYALELLAEKFPEQKEYLLDLAEEIESQIRSLSGVDVEDVRKFLDKEWAWVKEELAEHPAELAEVEAARAARLAELRAEVEAKVAA
3 | 13.8 nM | E44L (designed binder) MTLQELLREEALRRAEAEAFRYALELLAEKFPEQKEYLLDLAELIESQIRSLSGVDVEDVRKFLDKEWAWVKELLAEHPAELAEVEAARAARLAELRAEVEAKVAA
4 | 0.593 nM | K66M (designed binder) MTLQELLREEALRRAEAEAFRYALELLAEKFPEQKEYLLDLAEEIESQIRSLSGVDVEDVRKFLDMEWAWVKELLAEHPAELAEVEAARAARLAELRAEVEAKVAA
5 | 0.956 nM | R61C (designed binder) MTLQELLREEALRRAEAEAFRYALELLAEKFPEQKEYLLDLAEEIESQIRSLSGVDVEDVCKFLDKEWAWVKELLAEHPAELAEVEAARAARLAELRAEVEAKVAA
6 | 1.4 nM | G54N (designed binder) MTLQELLREEALRRAEAEAFRYALELLAEKFPEQKEYLLDLAEEIESQIRSLSNVDVEDVRKFLDKEWAWVKELLAEHPAELAEVEAARAARLAELRAEVEAKVAA
7 | 1.16 nM | E43P (designed binder) MTLQELLREEALRRAEAEAFRYALELLAEKFPEQKEYLLDLAPEIESQIRSLSGVDVEDVRKFLDKEWAWVKELLAEHPAELAEVEAARAARLAELRAEVEAKVAA
8 | 0.653 nM | Q34E (designed binder) MTLQELLREEALRRAEAEAFRYALELLAEKFPEEKEYLLDLAEEIESQIRSLSGVDVEDVRKFLDKEWAWVKELLAEHPAELAEVEAARAARLAELRAEVEAKVAA
9 | 0.593 nM | E95R (designed binder) MTLQELLREEALRRAEAEAFRYALELLAEKFPEQKEYLLDLAEEIESQIRSLSGVDVEDVRKFLDKEWAWVKELLAEHPAELAEVEAARAARLARLRAEVEAKVAA
10 | 0.653 nM | A88C (designed binder) MTLQELLREEALRRAEAEAFRYALELLAEKFPEQKEYLLDLAEEIESQIRSLSGVDVEDVRKFLDKEWAWVKELLAEHPAELAEVEACRAARLAELRAEVEAKVAA
11 | 0.79 nM | L12A (designed binder) MTLQELLREEAARRAEAEAFRYALELLAEKFPEQKEYLLDLAEEIESQIRSLSGVDVEDVRKFLDKEWAWVKELLAEHPAELAEVEAARAARLAELRAEVEAKVAA
12 | 0.446 nM | A87R (designed binder) MTLQELLREEALRRAEAEAFRYALELLAEKFPEQKEYLLDLAEEIESQIRSLSGVDVEDVRKFLDKEWAWVKELLAEHPAELAEVERARAARLAELRAEVEAKVAA
13 | 0.869 nM | D59H (designed binder) MTLQELLREEALRRAEAEAFRYALELLAEKFPEQKEYLLDLAEEIESQIRSLSGVDVEHVRKFLDKEWAWVKELLAEHPAELAEVEAARAARLAELRAEVEAKVAA
14 | 0.593 nM | E5M (designed binder) MTLQMLLREEALRRAEAEAFRYALELLAEKFPEQKEYLLDLAEEIESQIRSLSGVDVEDVRKFLDKEWAWVKELLAEHPAELAEVEAARAARLAELRAEVEAKVAA
15 | 0.653 nM | E29T (designed binder) MTLQELLREEALRRAEAEAFRYALELLATKFPEQKEYLLDLAEEIESQIRSLSGVDVEDVRKFLDKEWAWVKELLAEHPAELAEVEAARAARLAELRAEVEAKVAA
16 | 0.718 nM | A105R (designed binder) MTLQELLREEALRRAEAEAFRYALELLAEKFPEQKEYLLDLAEEIESQIRSLSGVDVEDVRKFLDKEWAWVKELLAEHPAELAEVEAARAARLAELRAEVEAKVRA
17 | 0.653 nM | R14F (designed binder) MTLQELLREEALRFAEAEAFRYALELLAEKFPEQKEYLLDLAEEIESQIRSLSGVDVEDVRKFLDKEWAWVKELLAEHPAELAEVEAARAARLAELRAEVEAKVAA
18 | 5.84 nM | L82D (designed binder) MTLQELLREEALRRAEAEAFRYALELLAEKFPEQKEYLLDLAEEIESQIRSLSGVDVEDVRKFLDKEWAWVKELLAEHPAEDAEVEAARAARLAELRAEVEAKVAA

Row | apparent Kd (screen) | Binder
19 | 0.446 nM | H78W (designed binder) MTLQELLREEALRRAEAEAFRYALELLAEKFPEQKEYLLDLAEEIESQIRSLSGVDVEDVRKFLDKEWAWVKELLAEWPAELAEVEAARAARLAELRAEVEAKVAA
20 | 12.5 nM | I45M (designed binder) MTLQELLREEALRRAEAEAFRYALELLAEKFPEQKEYLLDLAEEMESQIRSLSGVDVEDVRKFLDKEWAWVKELLAEHPAELAEVEAARAARLAELRAEVEAKVAA
21 | 0.539 nM | L52I (designed binder) MTLQELLREEALRRAEAEAFRYALELLAEKFPEQKEYLLDLAEEIESQIRSISGVDVEDVRKFLDKEWAWVKELLAEHPAELAEVEAARAARLAELRAEVEAKVAA
22 | 0.539 nM | P79D (designed binder) MTLQELLREEALRRAEAEAFRYALELLAEKFPEQKEYLLDLAEEIESQIRSLSGVDVEDVRKFLDKEWAWVKELLAEHDAELAEVEAARAARLAELRAEVEAKVAA
23 | 0.79 nM | A106E (designed binder) MTLQELLREEALRRAEAEAFRYALELLAEKFPEQKEYLLDLAEEIESQIRSLSGVDVEDVRKFLDKEWAWVKELLAEHPAELAEVEAARAARLAELRAEVEAKVAE
24 | 2.25 nM | D56K (designed binder) MTLQELLREEALRRAEAEAFRYALELLAEKFPEQKEYLLDLAEEIESQIRSLSGVKVEDVRKFLDKEWAWVKELLAEHPAELAEVEAARAARLAELRAEVEAKVAA
25 | 0.956 nM | Y22I (designed binder) MTLQELLREEALRRAEAEAFRIALELLAEKFPEQKEYLLDLAEEIESQIRSLSGVDVEDVRKFLDKEWAWVKELLAEHPAELAEVEAARAARLAELRAEVEAKVAA
26 | 5.84 nM | Q48I (designed binder) MTLQELLREEALRRAEAEAFRYALELLAEKFPEQKEYLLDLAEEIESIIRSLSGVDVEDVRKFLDKEWAWVKELLAEHPAELAEVEAARAARLAELRAEVEAKVAA
27 | 1.05 nM | E33K (designed binder) MTLQELLREEALRRAEAEAFRYALELLAEKFPKQKEYLLDLAEEIESQIRSLSGVDVEDVRKFLDKEWAWVKELLAEHPAELAEVEAARAARLAELRAEVEAKVAA
28 | 0.79 nM | V55C (designed binder) MTLQELLREEALRRAEAEAFRYALELLAEKFPEQKEYLLDLAEEIESQIRSLSGCDVEDVRKFLDKEWAWVKELLAEHPAELAEVEAARAARLAELRAEVEAKVAA
29 | 1.27 nM | A80N (designed binder) MTLQELLREEALRRAEAEAFRYALELLAEKFPEQKEYLLDLAEEIESQIRSLSGVDVEDVRKFLDKEWAWVKELLAEHPNELAEVEAARAARLAELRAEVEAKVAA
30 | 0.446 nM | E81Y (designed binder) MTLQELLREEALRRAEAEAFRYALELLAEKFPEQKEYLLDLAEEIESQIRSLSGVDVEDVRKFLDKEWAWVKELLAEHPAYLAEVEAARAARLAELRAEVEAKVAA
31 | 2.25 nM | L3H (designed binder) MTHQELLREEALRRAEAEAFRYALELLAEKFPEQKEYLLDLAEEIESQIRSLSGVDVEDVRKFLDKEWAWVKELLAEHPAELAEVEAARAARLAELRAEVEAKVAA
32 | 0.49 nM | E58V (designed binder) MTLQELLREEALRRAEAEAFRYALELLAEKFPEQKEYLLDLAEEIESQIRSLSGVDVVDVRKFLDKEWAWVKELLAEHPAELAEVEAARAARLAELRAEVEAKVAA
33 | 0.869 nM | A87I (designed binder) MTLQELLREEALRRAEAEAFRYALELLAEKFPEQKEYLLDLAEEIESQIRSLSGVDVEDVRKFLDKEWAWVKELLAEHPAELAEVEIARAARLAELRAEVEAKVAA
34 | 0.718 nM | K35Q (designed binder) MTLQELLREEALRRAEAEAFRYALELLAEKFPEQQEYLLDLAEEIESQIRSLSGVDVEDVRKFLDKEWAWVKELLAEHPAELAEVEAARAARLAELRAEVEAKVAA
35 | 0.79 nM | R89L (designed binder) MTLQELLREEALRRAEAEAFRYALELLAEKFPEQKEYLLDLAEEIESQIRSLSGVDVEDVRKFLDKEWAWVKELLAEHPAELAEVEAALAARLAELRAEVEAKVAA
